Test results: patent CN116003603A

Key:
[1] = target: CLDN18.2 (antigen of the ka/kd/KD measurement, species and form not stated); experiment: affinity measurement, method not described
[2] = target: CLDN18.2 (antigen of the ka/kd/KD measurement, species and form not stated); experiment: affinity measurement, method not described (Table 2-2)

Kd [1]: 4.17 nM
Kd [2]: 4.17 nM
Substance: IMAB362 (antibody)
